Numbering of substitutions follows the chain as printed.
T1: recombinant human ASM protein (human, UniProt P17405 47-630)
T1 construct: Recombinant human ASM in solution; also called acid sphingomyelinase (ASM) protein
T1 sequence: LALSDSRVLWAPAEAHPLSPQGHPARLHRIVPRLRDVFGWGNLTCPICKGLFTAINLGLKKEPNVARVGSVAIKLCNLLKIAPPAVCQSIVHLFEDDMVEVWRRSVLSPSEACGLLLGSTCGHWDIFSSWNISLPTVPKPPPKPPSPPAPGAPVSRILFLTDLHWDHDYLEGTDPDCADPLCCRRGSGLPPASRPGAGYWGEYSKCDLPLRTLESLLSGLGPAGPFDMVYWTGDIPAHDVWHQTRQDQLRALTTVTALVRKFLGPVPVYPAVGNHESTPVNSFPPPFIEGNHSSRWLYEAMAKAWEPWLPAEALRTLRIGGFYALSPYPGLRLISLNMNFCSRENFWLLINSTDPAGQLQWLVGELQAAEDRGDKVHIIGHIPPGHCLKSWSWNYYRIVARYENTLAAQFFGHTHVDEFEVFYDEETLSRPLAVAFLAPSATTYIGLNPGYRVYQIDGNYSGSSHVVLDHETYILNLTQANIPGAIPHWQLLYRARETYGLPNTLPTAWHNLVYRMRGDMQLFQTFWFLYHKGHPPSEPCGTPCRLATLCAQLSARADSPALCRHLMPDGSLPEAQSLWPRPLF

B1: #9104v-H02 (antibody, human IgG4 S228P, lambda, V domains shown)
VH: EVQLLESGGGLVQPGGSLRLSCAASGFTFSNYYMSWVRQAPGKGLEWVSGIYFGSGDIRYADSVKGRFTISRDNSKNTLYLQMNSLRAEDTAVYYCARDTPGFDYWGQGTLVTVSS
VL: QSVLTQPPSASGTPGQRVTISCTGSSSNIGNNAVNWYQQLPGTAPKLLIYYDSHRPSGVPDRFSGSKSGTSASLAISGLRSEDEADYYCGAWDYSLSAYVFGGGTKLTVLG
notes: Full-length IgG, lambda
B2: #9104v-H05 (antibody, human IgG4 S228P, lambda, V domains shown)
VH: B1 VH with F53Y, S55G, G56V, D57K, R59Y
VL: B1 VL
notes: Full-length IgG, lambda
B3: #9104v-H11 (antibody, human IgG4 S228P, lambda, V domains shown)
VH: B1 VH with F53Y, D57I, I58P, R59Y, G66E
VL: B1 VL
notes: Full-length IgG, lambda
B4: #9104v-H19 (antibody, human IgG4 S228P, lambda, V domains shown)
VH: B1 VH with F53Y, D57V, I58P, R59Y
VL: B1 VL
notes: Full-length IgG, lambda
B5: #9104v-H24 (antibody, human IgG4 S228P, lambda, V domains shown)
VH: B1 VH with I51L, F53Y, D57I, I58P, R59Y
VL: B1 VL
notes: Full-length IgG, lambda
B6: #9104v-H18 (antibody, human IgG4 S228P, lambda, V domains shown)
VH: B1 VH with F53Y, D57T, I58P, R59Y, A61S
VL: B1 VL
notes: Full-length IgG, lambda
B7: #9104v-H14 (antibody, human IgG4 S228P, lambda, V domains shown)
VH: B1 VH with F53Y, D57K, I58P, R59Y
VL: B1 VL
notes: Full-length IgG, lambda
B8: #9104v-H22 (antibody, human IgG4 S228P, lambda, V domains shown)
VH: B1 VH with I51L, F53Y, S55G, D57T, I58P, R59Y
VL: B1 VL
notes: Full-length IgG, lambda
B9: #9104v-H13 (antibody, human IgG4 S228P, lambda, V domains shown)
VH: B1 VH with F53Y, D57I, I58P, R59Y, D62N
VL: B1 VL
notes: Full-length IgG, lambda
B10: #9104v-H17 (antibody, human IgG4 S228P, lambda, V domains shown)
VH: B1 VH with Q39R, F53Y, D57T, I58P, R59Y, D62A
VL: B1 VL
notes: Full-length IgG, lambda
B11: #9104v-H10 (antibody, human IgG4 S228P, lambda, V domains shown)
VH: B1 VH with F53Y, S55N, D57I, I58P, R59Y, G66D
VL: B1 VL
notes: Full-length IgG, lambda
B12: #9104v-L38 (antibody, human IgG4 S228P, lambda, V domains shown)
VH: B1 VH with F53Y, D57N, R59Y
VL: B1 VL with H54Y, S57F
notes: Full-length IgG, lambda
B13: #9104v-L37 (antibody, human IgG4 S228P, lambda, V domains shown)
VH: B1 VH with F53Y, D57N, R59Y
VL: B1 VL with H54Y, P56A
notes: Full-length IgG, lambda
B14: #9104v-L33 (antibody, human IgG4 S228P, lambda, V domains shown)
VH: B1 VH with F53Y, D57N, R59Y
VL: B1 VL with H54Y, R55P, S57Y
notes: Full-length IgG, lambda
B15: #9104v-L63 (antibody, human IgG4 S228P, lambda, V domains shown)
VH: B1 VH with F53Y, D57N, R59Y
VL: B1 VL with S95W, S97G
notes: Full-length IgG, lambda
B16: #9104v-L27 (antibody, human IgG4 S228P, lambda, V domains shown)
VH: B1 VH with F53Y, D57N, R59Y
VL: B1 VL with H54F, P56Q
notes: Full-length IgG, lambda
B17: #9104v-L47 (antibody, human IgG4 S228P, lambda, V domains shown)
VH: B1 VH with F53Y, D57N, R59Y
VL: B1 VL with H54Y, R55T
notes: Full-length IgG, lambda
B18: #9104v-L34 (antibody, human IgG4 S228P, lambda, V domains shown)
VH: B1 VH with F53Y, D57N, R59Y
VL: B1 VL with H54Y, R55Q, P56A
notes: Full-length IgG, lambda
B19: #9104v-L52 (antibody, human IgG4 S228P, lambda, V domains shown)
VH: B1 VH with F53Y, D57N, R59Y
VL: B1 VL with S53V, S57R
notes: Full-length IgG, lambda
B20: #9104v-L55 (antibody, human IgG4 S228P, lambda, V domains shown)
VH: B1 VH with F53Y, D57N, R59Y
VL: B1 VL with S53W, H54Y, S57T
notes: Full-length IgG, lambda
B21: #9104v-L65 (antibody, human IgG4 S228P, lambda, V domains shown)
VH: B1 VH with F53Y, D57N, R59Y
VL: B1 VL with S53Y, H54Y, R55Q, P56S
notes: Full-length IgG, lambda
B22: #9104v-L64 (antibody, human IgG4 S228P, lambda, V domains shown)
VH: B1 VH with F53Y, D57N, R59Y
VL: B1 VL with S53Y, H54F, R55S, P56H
notes: Full-length IgG, lambda
B23: #9104v-L32 (antibody, human IgG4 S228P, lambda, V domains shown)
VH: B1 VH with F53Y, D57N, R59Y
VL: B1 VL with H54Y, R55L
notes: Full-length IgG, lambda
B24: #9104v-L46 (antibody, human IgG4 S228P, lambda, V domains shown)
VH: B1 VH with F53Y, D57N, R59Y
VL: B1 VL with H54Y, P56S, S57W
notes: Full-length IgG, lambda
B25: #9104v-L39 (antibody, human IgG4 S228P, lambda, V domains shown)
VH: B1 VH with F53Y, D57N, R59Y
VL: B1 VL with H54Y, S57G
notes: Full-length IgG, lambda
B26: #9104v-L29 (antibody, human IgG4 S228P, lambda, V domains shown)
VH: B1 VH with F53Y, D57N, R59Y
VL: B1 VL with H54F, P56S, S57T
notes: Full-length IgG, lambda
B27: #9104v-L49 (antibody, human IgG4 S228P, lambda, V domains shown)
VH: B1 VH with F53Y, D57N, R59Y
VL: B1 VL with S53T, H54F, S57T
notes: Full-length IgG, lambda
B28: #9104v-L28 (antibody, human IgG4 S228P, lambda, V domains shown)
VH: B1 VH with F53Y, D57N, R59Y
VL: B1 VL with H54F, P56R
notes: Full-length IgG, lambda

Each binder was assayed against T1, recombinant human ASM protein (assay: BLI (Octet), antibody on AHC sensor).
Experimental: (§1) The binding affinity, to the ASM protein, of the produced antibodies specifically binding to the ASM protein and the interactive dynamics therebetween were measured using an Octet® QK384 system (Pall Life Sciences).
(§2) First, an antibody specifically binding to the ASM protein produced in Example 1 was captured using an anti-human IgG Fc capture (AHC) biosensor, and 1.25, 2.5, 5, 10, or 20 nM recombinant human ASM protein solution was added thereto. […] The association constant (Kₐ), dissociation constant (Kd), and equilibrium dissociation constant (KD) for each antibody were determined using Octet® analysis software (Pall Life® Sciences). As a result, the binding affinities, to the human ASM protein, of the antibodies with mutations in the heavy chain CDR regions of the antibody #9104 as depicted in Table 1 are shown in Table 5, and the binding affinities, to the human ASM protein, of the antibodies with mutations of the light chain CDR regions in the antibody #9104 as depicted in Table 2 are shown in Table 6.

Kd | koff | kon | Binder
1.2 nM | 0.000333 s⁻¹ | 278000 M⁻¹ s⁻¹ | B1
1.03 nM | 0.000177 s⁻¹ | 171000 M⁻¹ s⁻¹ | B2
0.781 nM | 0.000195 s⁻¹ | 250000 M⁻¹ s⁻¹ | B3
0.692 nM | 0.000184 s⁻¹ | 266000 M⁻¹ s⁻¹ | B4
1.01 nM | 0.000206 s⁻¹ | 204000 M⁻¹ s⁻¹ | B5
2.69 nM | 0.000264 s⁻¹ | 97900 M⁻¹ s⁻¹ | B6
0.857 nM | 0.000281 s⁻¹ | 328000 M⁻¹ s⁻¹ | B7
0.798 nM | 0.000157 s⁻¹ | 197000 M⁻¹ s⁻¹ | B8
0.803 nM | 0.000185 s⁻¹ | 231000 M⁻¹ s⁻¹ | B9
0.719 nM | 0.000243 s⁻¹ | 338000 M⁻¹ s⁻¹ | B10
0.651 nM | 0.000154 s⁻¹ | 237000 M⁻¹ s⁻¹ | B11

Molecular target: T1, recombinant human ASM protein
Assay: BLI (Octet), antibody on AHC sensor
Remark: another data set of the same source
Experimental: as §1, §2

Kd | koff | kon | Binder
1.8 nM | 0.000343 s⁻¹ | 191000 M⁻¹ s⁻¹ | B12
1.27 nM | 0.000327 s⁻¹ | 259000 M⁻¹ s⁻¹ | B13
1.27 nM | 0.000289 s⁻¹ | 227000 M⁻¹ s⁻¹ | B14
1.41 nM | 0.000255 s⁻¹ | 181000 M⁻¹ s⁻¹ | B15
1.02 nM | 0.000355 s⁻¹ | 348000 M⁻¹ s⁻¹ | B16
1.41 nM | 0.000415 s⁻¹ | 294000 M⁻¹ s⁻¹ | B17
1.61 nM | 0.000493 s⁻¹ | 306000 M⁻¹ s⁻¹ | B18
0.982 nM | 0.000264 s⁻¹ | 269000 M⁻¹ s⁻¹ | B19
0.879 nM | 0.00017 s⁻¹ | 193000 M⁻¹ s⁻¹ | B20
0.532 nM | 0.000192 s⁻¹ | 360000 M⁻¹ s⁻¹ | B21
0.505 nM | 0.000193 s⁻¹ | 383000 M⁻¹ s⁻¹ | B22
1.37 nM | 0.000439 s⁻¹ | 321000 M⁻¹ s⁻¹ | B23
0.88 nM | 0.000258 s⁻¹ | 293000 M⁻¹ s⁻¹ | B24
1.52 nM | 0.000443 s⁻¹ | 291000 M⁻¹ s⁻¹ | B25
1.07 nM | 0.000292 s⁻¹ | 272000 M⁻¹ s⁻¹ | B26
0.785 nM | 0.000225 s⁻¹ | 286000 M⁻¹ s⁻¹ | B27
1.05 nM | 0.000254 s⁻¹ | 241000 M⁻¹ s⁻¹ | B28

— patent US20260201064A1 (ISU ABXIS, published 2026)
